What was measured:
Type in all cases: in vivo, mouse
[1] = tested on: transgenic mice expressing human DC-SIGN gene (Tg+); experiment: Plasma cytokine production in transgenic mice expressing human DC-SIGN (ELISA / MesoScaleDiscovery)
Description: FIGS. 5A-5E show exemplary data on DC-SIGN immunoconjugates inducing cytokine production in Tg+ mice. […] Plasma levels were analyzed by ELISA (IP-10 and IFNβ) or MesoScaleDiscovery Multiplex analysis (all other analytes). **** denotes p value of <0.0001 using an ANOVA with Tukey's test compared to Tg-2B2 hlgG1 DAPA C1 group.
Mice were bled 6 hours after dosing to collect plasma for analysis of circulating cytokine levels.

[2] = tested on: tumor and splenic immune cells; experiment: Flow cytometry of spleen and tumor immune cells in tumor-bearing DC-SIGN transgenic mice (PDL1, T cell infiltration and activation); details: Tg+ mice
Description: FIGS. 19A-19B show exemplary data on DC-SIGN immunoconjugates inducing upregulation of surface PDL1.
FIGS. 20A-20F show exemplary data on DC-SIGN immunoconjugates enhancing tumor T cell infiltration and T cell activation.

[3] = tested on: transgenic mice expressing human DC-SIGN gene (Tg+); experiment: Splenic dendritic cell activation in human DC-SIGN transgenic mice, flow cytometry; details: 24 hours post dose
Description: Blood was collected at 6 hours post dose to analyze plasma cytokine and chemokine levels and spleens were analyzed at 24 hours post dose to look at dendritic cell activation.
Spleens were harvested 24 hours post dose and analyzed by flow cytometry to look at CD11c+ dendritic cells.
Tumors and/or spleens were extracted at the timepoints indicated from animals. Spleens were processed into a single cell suspension using glass slides and passed through a 100 micron mesh filter. Spleens were lysed in 1 mL of ACK lysis buffer (Life Technologies) for 5 minutes at room temperature. […]
1-2 million cells for each sample were then stained with a cocktail of antibodies to determine impact of the treatments on dendritic cells, myeloid cells and T cells. […] After staining, cells were evaluated on the BD LSRFortessa™ cell analyzer (BD Biosciences, San Jose, Calif.). […]

MC38 tumor cells = experiment: Flow cytometry of tumors and spleens of MC38 tumor-bearing mice (PDL1, T cell infiltration); details: Tg+ mice
Description: Spleens and tumors were analyzed 24 hours post dose by flow cytometry for PDL1 expression.
The effect of DC-SIGN immunoconjugate on tumor T cell infiltration was also evaluated. […] Mice After the mice were sacrificed 7 days after dosing, tumors were analyzed for T cell infiltration and activation by flow cytometry.
Tumors and/or spleens were extracted at the timepoints indicated from animals. Spleens were processed into a single cell suspension using glass slides and passed through a 100 micron mesh filter. Spleens were lysed in 1 mL of ACK lysis buffer (Life Technologies) for 5 minutes at room temperature. After lysis, cells were pelleted and resuspended in complete RMPI medium (RPMI Media 1640 with 10 percent fetal bovine serum (FBS), 0.05 mM 2-mercaptoethanol, 1 percent Penicillin-Streptomycin-Glutamine, 1 percent non-essential amino acids, 1 percent HEPES, 1 percent sodium pyruvate (all media reagents from Thermo Fisher). Tumors were extracted and put into digestion media in gentleMACS C tubes. Digestion media consists of Dulbecco's Modified Eagle Medium with 0.04 U/mL Dispase (StemCell Technologies), 0.1 mg/mL Collagenase P (Sigma) and 0.1 mg/mL DNase (Sigma). Tumors were incubated with in digestion media and then processed using the gentleMACS Dissociator (Miltenyi Biotec Inc, San Diego, Calif.) to obtain a single cell suspension. After processing, cells were filtered in […] filters (Miltenyi Biotec Inc).
1-2 million cells for each sample were then stained with a cocktail of antibodies to determine impact of the treatments on dendritic cells, myeloid cells and T cells. For FACS analysis, cells were stained with a fixable, amine reactive dye to label dead cells (Zombie UV™ fixable viability kit, Biolegend) in PBS. For antibody staining, indicated antibodies (see table below) were diluted in PBS with 0.5% Bovine serum albumin (BSA, from Sigma). Samples were incubated at 4° C. for 30 minutes and then washed 2 times with PBS with 0.5% BSA. Cells were fixed with stabilizing fixative (BD). For intracellular analysis of FoxP3 to evaluate T regulatory cells, cells were fixed and permeabilized with the FoxP3 transcription factor kit according to manufacturer's recommendations (Thermo Fisher). Cells were then stained with FoxP3 clone FJK-16s (Thermo Fisher). After staining, cells were evaluated on the BD LSRFortessa™ cell analyzer (BD Biosciences, San Jose, Calif.).
T cells were identified as CD3+ MHCII− cells. CD8+ T cells and CD4+ T cells were further defined as CD8 and CD4 positive, respectively. Tregs were identified from CD4+ T cells as being FoxP3+.
Dendritic cells were identified as MHCII high CD11c high cells and further gated on expression of CD8 and CD11 b to identify CD8+DC subsets and CD11b+ DCs where noted. Monocytic myeloid derived suppressor cells were identified as CD45+ cells in tumors that express CD11b, MHCII, F4/80, Ly6C and are intermediate for Ly6G.

[4] = MC38, 1 mg/kg, 24 hours post dose

B1: 2B2 (DAPA) C1 (conjugate)
heavy: QVQLVQSGAEVKKPGASVKVSCKASGYTFTNYGINWVRQAPGQRLEWMGYIYIGNDYTEYNERFKGRVTITSDTSASTAYMELSSLRSEDTAVYYCARLYYGSSLYSYAMDYWGQGTTVTVSSASTKGPSVFPLAPSSKSTSGGTAALGCLVKDYFPCPVTVSWNSGALTSGVHTFPAVLQSSGLYSLSSVVTVPSSSLGTQTYICNVNHKPSNTKVDKRVEPKSCDKTHTCPPCPAPELLGGPSVFLFPPKPKDTLMISRTPEVTCVVVAVSHEDPEVKFNWYVDGVEVHNAKTKPREEQYNSTYRVVSVLTVLHQDWLNGKEYKCKVSNKALAAPIEKTISKAKGQPREPQVYTLPPSREEMTKNQVSLTCLVKGFYPCDIAVEWESNGQPENNYKTTPPVLDSDGSFFLYSKLTVDKSRWQQGNVFSCSVMHEALHNHYTQKSLSLSPGK
light: DIVMTQSPLSLPVTPGEPASISCRSSKSLLHSSGNTYLYWFLQKPGQSPQLLISRMSNLASGVPDRFSGSGSGTDFTLKISRVEAEDVGVYYCMQHLEYPYTFGGGTKVEIKRTVAAPSVFIFPPSDEQLKSGTASVVCLLNNFYPREAKVQWKVDNALQSGNSQESVTEQDSKDSTYSLSSTLTLSKADYEKHKVYACEVTHQGLSSPVTKSFNRGEC
circulating plasma IL-12p70 [1]: increased | circulating plasma IP-10 [1]: increased | circulating plasma TNFα [1]: increased | surface PDL1 on splenic CD11c high dendritic cells ([2]; 1 mg/kg): significant upregulation | surface PDL1 on tumor resident dendritic cells and mMDSCs ([2]; 1 mg/kg): significant upregulation | CD3+ T cells in tumor ([2]; 24 and 48 hours post dosing): Increased | T cell activation as measured by CD69 upregulation on CD4 and CD8 T cells in tumors ([2]; 24 hours post dose): Enhanced T cell activation | CD8+ T cells in tumors ([2]; day 7 post dose): significant increase | FoxP3+ T regulatory cells in tumors ([2]; day 7 post dose): significant decrease | infiltration of CD8 T cells in tumors ([2]; in combination with anti-PDL1): enhanced infiltration of CD8 T cells | CD86 upregulation on splenic dendritic cells ([3]; 1 mg/kg i.v. (Fab2 1.33 mg/kg, Fab 1.3 mg/kg)): significantly upregulated | CD80 upregulation on splenic dendritic cells ([3]; 1 mg/kg i.v.): significantly upregulated | surface PDL1 on splenic CD11c high dendritic cells (MC38 tumor cells; [4]): significant upregulation of surface PDL1 | surface PDL1 on tumor resident dendritic cells and mMDSCs (MC38 tumor cells; [4]): significant upregulation of surface PDL1 | tumor CD3+ T cells (MC38 tumor cells; MC38, 1 mpk, 24 and 48 hours post dosing): increased CD3+ T cells | T cell activation as measured by CD69 upregulation on tumor CD4 and CD8 T cells (MC38 tumor cells; MC38, 1 mpk, 24 hours post dose): Enhanced T cell activation | tumor CD8+ T cells (MC38 tumor cells; MC38, 1 mpk, day 7 post dose): significant increase in CD8+ T cells | tumor FoxP3+ T regulatory cells (MC38 tumor cells; MC38, 1 mpk, day 7 post dose): significant decrease in FoxP3+T regulatory cells | tumor infiltration of CD8 T cells, combination with anti-PDL1 (MC38 tumor cells; MC38, conjugate plus anti-PDL1 clone 10F.9G2, 7 days after dosing): enhanced infiltration of CD8 T cells
